From patent US20050287132A1, “Biliverdin reductase fragments and variants, and methods of using biliverdin reductase and such fragments and variants” (University of Rochester, priority 1999, published 2005)

Key:
[1] = Biliverdin reductase catalytic activity of recombinant wild type and mutant hBVR (Example 2, FIG. 3); format: biochemical, human
Experimental: FIGS. 3A-C are graphs depicting the effects of mutation of Gly^17, Ser^149, and Lys^296 on BVR catalytic activity. Purified preparations of recombinant wild type and mutant BVR with substitution of Gly^17 (FIG. 3A), Ser^149 (FIG. 3B), or Lys^296 (FIG. 3C) with Ala were assessed for BVR activity at pH 6.5 using NADH as cofactor and at pH 8.7 with NADPH as cofactor. Values presented are in percent wild type activity for each pH. The specific activity of the wild type preparation was 1744 nmol bilirubin produced min^−1 mg^−1 at pH 6.5 and 1147 nmol bilirubin produced min^−1 mg^−1 at pH 8.7. Values presented are representative of 2-4 determinations.
GST-BVR fusion proteins were prepared as described in Example 1. Human kidney biliverdin reductase was purified to homogeneity as described by Maines et al., Arch. Biochem. Biophys. 300:320-326 (1993), which is hereby incorporated by reference. The purified reductase preparations were judged to be homogenous by SDS-PAGE. Protein concentration was determined by the method of Bradford, Anal. Biochem. 72:248-254 (1976), which is hereby incorporated by reference.
Activity was determined as previously described by Huang et al., J. Biol. Chem. 264:7844-7849 (1989), which is hereby incorporated by reference, using NADPH as the cofactor at pH 8.7 in 0.1 M […] or NADH at pH 6.5 in […]. The rate of activity was measured as the increase in 450 nm absorbance at 25° C. Specific activity is expressed in units/mg protein, where 1 unit catalyzes the formation of 1 nmol bilirubin/min.

biliverdin reductase = assay: Phosphorylation state of hBVR, SDS-PAGE immunoblot with anti-phospho antibodies; format: biochemical, human; settings: protein purified from human kidney, anti-phospho mix
Experimental: Purified protein was subjected to 12.5% SDS-PAGE and the protein transferred to PVDF membrane. The membrane was subsequently treated as for Western blotting, using anti-phosphoserine, anti-phosphotyrosine or anti-phosphothreonine, at 2 μg/ml, or a mixture of all three antibodies as the primary antibody. The secondary antibody was goat anti-rabbit horseradish peroxidase at a 1:1000 dilution and detection was carried out using the ECL reagent kit (NEN Life Sciences) according to the manufacturer's instructions.

HeLa cells = assay: Nuclear translocation of hemagglutinin-tagged BVR constructs after 8-bromo-cGMP, immunofluorescence; format: cell-based, human; settings: 500 μM 8-bromo-cGMP, 5 min (up to 60 min)
Experimental: HeLa cells were grown on glass cover slips in DMEM medium containing 10% FBS under an atmosphere of 5% CO2. Cells were transfected with different BVR constructs using Lipofectamine, as described by the manufacturer. Briefly, cells were treated with a mixture of 2 μg DNA and 20 μl Lipofectamine for 5 h followed by the addition of DMEM medium. After 48 h, cells were treated with 500 μM 8-bromo-cGMP for 5, 20 or 60 min, fixed with 4% paraformaldehyde for 10 min. Cells were then rinsed with phosphate-buffered saline, incubated with 5% goat serum to block nonspecific binding sites and then with monoclonal anti hemagglutinin primary antibody and FITC conjugated secondary antibody. Cells were visualized by direct fluorescence microscopy.

[2] = Biliverdin reductase activity of E. coli expressed hBVR wild type and mutants (Example 1); format: biochemical, human
Experimental: SalI linkers are underlined in each primer. The products were digested with SalI and cloned into the vector pGEX 4T-2. Orientation was determined by restriction analysis and confirmed by sequencing. The ligation places the BVR coding region in frame with the GST protein of the vector. GST-BVR fusion proteins were purified from bacterial clones containing the plasmid, and grown overnight using a glutathione-sepharose 4B column (Pharmacia). The reductase portion of the fusion protein was released by thrombin protease treatment.
Activity was determined as previously described (Kutty et al., J. Biol. Chem. 256:3956-3962 (1981); Huang et al., J. Biol. Chem. 264:7844-7849 (1989), which are hereby incorporated by reference). Activity was determined in a 1 ml assay volume that contained 0.1 M Tris/HCl, pH 8.7 NADPH (100 μM), and biliverdin (5 μM). Reductase activity was also measured using NADH (1 mM) as the cofactor; in this case 0.1 M potassium phosphate pH 6.75, was substituted for Tris/HCl. SDS/PAGE was performed by the method of Laemmli, Nature 227:680-685 (1970), which is hereby incorporated by reference. Western blot analysis was performed using anti-serum to human kidney biliverdin reductase as previously described (Maines et al., Arch. Biochem. Biophys. 300:320-326 (1993), which is hereby incorporated by reference). The relative amounts of immunoreactive protein were determined by scanning the blot using a laser densitometer and comparing the area under the peak for each mutant with the wild type. The rate of activity was measured as the increase in 450 nm absorbance at 25° C. Specific activity is expressed as nmol bilirubin/min/ mg protein.

B1: wild type: wild type human biliverdin reductase, SEQ. ID. No. 1; E. coli expressed or purified from human kidney (protein, listed as Homo sapiens)
chain: MNAEPERKFGVVVVGVGRAGSVRMRDLRNPHPSSAFLNLIGFVSRRELGSIDGVQQISLEDALSSQEVEVAYICSESSSHEDYIRQFLNAGKHVLVEYPMTLSLAAAQELWELAEQKGKVLHEEHVELLMEEFAFLKKEVVGKDLLKGSLLFTSDPLEEDRFGFPAFSGISRLTWLVSLFGELSLVSATLEERKEDQYMKMTVCLETEKKSPLSWIEEKGPGLKRNRYLSFHFKSGSLENVPNVGVNKNIFLKDQNIFVQKLLGQFSEKELAAEKKRILHCLGLAEEIQKYCCSRK
- specific activity ([1]; pH 6.5, NADH): 1744 nmol bilirubin produced min^−1 mg^−1
- specific activity ([1]; pH 8.7, NADPH): 1147 nmol bilirubin produced min^−1 mg^−1
- phosphorylation state (biliverdin reductase): phosphoprotein
- nuclear localization in response to 8-bromo-cGMP (HeLa cells): strong punctate staining associated with the nucleus
- Activity % pH 6.7 + NADH ([2]; Cys→Ala mutations, wild type = 100, pH 6.7, NADH): 100%
- Activity % pH 8.7 + NADPH ([2]; Cys→Ala mutations, wild type = 100, pH 8.7, NADPH): 100%
- Activity (nmol bilirubin/min/mg) pH 6.7 + NADH ([2]; pH 6.7, NADH cofactor, 25°): 2830 nmol bilirubin/min/mg
- Activity (nmol bilirubin/min/mg) pH 8.7 + NADPH ([2]; pH 8.7, NADPH cofactor, 25°): 1338 nmol bilirubin/min/mg
